Patent publication US20140087995A1 (published 2014)
Numbered stars: 1 amine (or outer) side, 2 acyl side, 3 side chain; on linkers, the order of the positions; unused ones are H or OH. Bridge positions count the residues as written; N and C are the ends. Side chains are listed from the residue outwards. Ends that are not written are not given here. * marks the point of attachment. C20 diacid = O=C(O)CCCCCCCCCCCCCCCCCCC(=O)*; γGlu = O=C(O)[C@H](CCC(=O)[*:2])N[*:1]; AEEA = NCCOCCOCC(=O)O

Legend:
[1] = biological target: T1, human calcitonin receptor (human, UniProt P30988 25-474); assay: cell-based or functional assay
T1 sequence (looked up): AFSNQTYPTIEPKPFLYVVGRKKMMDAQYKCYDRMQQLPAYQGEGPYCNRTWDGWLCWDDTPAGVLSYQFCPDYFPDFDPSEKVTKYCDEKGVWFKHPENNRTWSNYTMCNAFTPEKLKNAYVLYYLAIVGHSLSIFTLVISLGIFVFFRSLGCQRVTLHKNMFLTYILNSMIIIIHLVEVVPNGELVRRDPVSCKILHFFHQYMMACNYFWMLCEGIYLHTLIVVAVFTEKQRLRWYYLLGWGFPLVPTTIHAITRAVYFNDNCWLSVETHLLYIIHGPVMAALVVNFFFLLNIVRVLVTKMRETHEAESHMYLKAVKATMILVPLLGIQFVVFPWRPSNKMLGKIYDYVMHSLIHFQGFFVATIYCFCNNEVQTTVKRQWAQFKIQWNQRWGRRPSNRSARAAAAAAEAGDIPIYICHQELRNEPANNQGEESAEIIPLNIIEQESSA

[2] = biological target: T2, rat calcitonin receptor (rat, UniProt P32214 25-516); assay: ratio of IC50 on rat calcitonin receptor (Assay VIII) to IC50 on rat amylin receptor (Assay VI)
T2 construct: whole, on cells; Used as membranes prepared from the transfected cells (Assay VIII); also called rCTR; rat calcitonin (a) receptor
T2 sequence (looked up): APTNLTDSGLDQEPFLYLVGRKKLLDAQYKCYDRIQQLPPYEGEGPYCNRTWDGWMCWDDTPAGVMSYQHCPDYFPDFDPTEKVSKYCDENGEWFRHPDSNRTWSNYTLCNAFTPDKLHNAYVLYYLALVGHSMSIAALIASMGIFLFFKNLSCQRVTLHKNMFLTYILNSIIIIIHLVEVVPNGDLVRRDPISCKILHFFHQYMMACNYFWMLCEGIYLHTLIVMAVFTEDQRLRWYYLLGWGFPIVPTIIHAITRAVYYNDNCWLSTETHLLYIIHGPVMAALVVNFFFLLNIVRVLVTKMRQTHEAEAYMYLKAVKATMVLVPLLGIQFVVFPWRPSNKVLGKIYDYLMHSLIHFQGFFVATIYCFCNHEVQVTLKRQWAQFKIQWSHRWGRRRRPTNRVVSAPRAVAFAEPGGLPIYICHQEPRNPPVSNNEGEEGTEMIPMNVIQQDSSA

[3] = biological target: T3, human calcitonin receptor (human, UniProt P30988 25-474); assay: ratio of IC50 on human calcitonin receptor (Assay VII) to IC50 on human amylin receptor (Assay V)
T3 construct: whole, on cells; Used as membranes prepared from the transfected cells (Assay VII); also called hCTR; hCT
T3 sequence (looked up): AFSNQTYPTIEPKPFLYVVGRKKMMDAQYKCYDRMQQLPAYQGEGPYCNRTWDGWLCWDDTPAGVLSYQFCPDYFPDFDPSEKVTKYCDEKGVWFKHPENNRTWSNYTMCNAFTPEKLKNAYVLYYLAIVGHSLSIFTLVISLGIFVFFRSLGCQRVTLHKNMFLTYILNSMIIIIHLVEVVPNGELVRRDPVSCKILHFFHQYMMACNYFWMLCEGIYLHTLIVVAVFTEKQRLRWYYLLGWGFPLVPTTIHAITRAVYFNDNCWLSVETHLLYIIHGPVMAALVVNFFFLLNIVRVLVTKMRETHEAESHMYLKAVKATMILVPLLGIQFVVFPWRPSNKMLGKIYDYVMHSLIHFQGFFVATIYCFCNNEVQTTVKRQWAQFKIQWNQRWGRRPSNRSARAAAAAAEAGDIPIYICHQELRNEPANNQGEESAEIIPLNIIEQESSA
Summary of the method: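 Competition binding by SPA uses membrane preparations (35 ng/μL final) in pH 7.4 Hepes buffer with 1 mM CaCl2 and 5 mM MgCl₂. Incubation lasts 120 min at 25° C, and IC₅₀ comes from one-site fitting.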

[4] = biological target: T2, rat calcitonin receptor; assay: SPA competition binding, displacement of 125I-calcitonin from membranes of BHK tk'ts 13 cells transfected with rat calcitonin receptor (Assay VIII)
[5] = biological target: T4, rat amylin receptor (rat calcitonin receptor + rat RAMP 3) (rat, UniProt P32214 25-516; Q9JJ73 23-147); assay: SPA competition binding, displacement of 125I-rat amylin from membranes of BHK tk'ts 13 cells transfected with rat calcitonin receptor + rat RAMP 3 (Assay VI)
T4 construct: whole, on cells; Used as membranes prepared from the transfected cells (Assay VI); also called rAmylin-R; rat amylin 3(a) receptor
T4 sequence (looked up) 1: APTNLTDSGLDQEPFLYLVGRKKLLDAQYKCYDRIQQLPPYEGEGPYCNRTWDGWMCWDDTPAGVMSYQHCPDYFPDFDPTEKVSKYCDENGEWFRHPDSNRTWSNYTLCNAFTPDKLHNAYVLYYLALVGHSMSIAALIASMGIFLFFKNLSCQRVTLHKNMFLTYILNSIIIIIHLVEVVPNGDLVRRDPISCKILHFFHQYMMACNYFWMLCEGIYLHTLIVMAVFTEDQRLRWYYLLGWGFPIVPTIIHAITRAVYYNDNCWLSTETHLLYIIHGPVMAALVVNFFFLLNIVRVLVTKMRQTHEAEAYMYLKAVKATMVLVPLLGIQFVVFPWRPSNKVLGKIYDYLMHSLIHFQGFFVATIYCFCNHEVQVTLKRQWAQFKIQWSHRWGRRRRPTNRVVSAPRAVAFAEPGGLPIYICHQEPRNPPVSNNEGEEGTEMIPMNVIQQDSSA
T4 sequence (looked up) 2: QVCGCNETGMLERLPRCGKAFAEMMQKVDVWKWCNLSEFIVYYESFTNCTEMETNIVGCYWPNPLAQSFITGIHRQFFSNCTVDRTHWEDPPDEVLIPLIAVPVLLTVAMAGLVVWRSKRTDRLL

| Binder | Ratio hCT/hAmylin funct. [1] | Ratio rCT/rAmylin binding [2] | Ratio hCT/hAmylin binding [3] | IC50 [4] [nM] | IC50 [5] [nM] |
| --- | --- | --- | --- | --- | --- |
| K([AEEA-AEEA-γGlu-C20 diacid])CNTATCATQRLANFLRHSSPNFGAIPSSTNVGPNTY-NH2 (disulfide 2-7 (inferred), also called compound 98) | 19.5 |  |  |  |  |
| K([AEEA-C20 diacid])CNTATCATQRLANFLRHSSPNFGAIPSSTNVGHNTY-NH2 (disulfide 2-7 (inferred), also called compound 91) [N^ε1-[2-[2-[2-(19-carboxynonadecanoylamino)ethoxy]ethoxy]acetyl]-[Arg17,Pro21,Pro27,His34]-h-amylin] | 36.9 |  |  |  |  |
| K([AEEA-AEEA-γGlu-C20 diacid])CNTATCATQRLANFLRHSSPNFGAIPSSTNVGRNTY-NH2 (disulfide 2-7 (inferred), also called compound 95) | 33 |  |  |  |  |
| K([AEEA-AEEA-γGlu-C20 diacid])CNTATCATQRLANFLRHSSPNFGAIPSSTNVGHNTY-NH2 (disulfide 2-7 (inferred), also called compound 97) | 33 |  |  |  |  |
| K([γGlu-γGlu-C20 diacid])CNTATCATQRLASFLRHSSPNFGAIPSSTNVGPETY-NH2 (disulfide 2-7; N-terminus assumed; SMILES CC[C@H](C)[C@H](NC(=O)[C@H](C)NC(=O)CNC(=O)[C@H](Cc1ccccc1)NC(=O)[C@H](CC(N)=O)NC(=O)[C@@H]1CCCN1C(=O)[C@H](CO)NC(=O)[C@H](CO)NC(=O)[C@H](Cc1c[nH]cn1)NC(=O)[C@H](CCCNC(=N)N)NC(=O)[C@H](CC(C)C)NC(=O)[C@H](Cc1ccccc1)NC(=O)[C@H](CO)NC(=O)[C@H](C)NC(=O)[C@H](CC(C)C)NC(=O)[C@H](CCCNC(=N)N)NC(=O)[C@H](CCC(N)=O)NC(=O)[C@@H](NC(=O)[C@H](C)NC(=O)[C@@H]1CSSC[C@H](NC(=O)[C@@H](N)CCCCNC(=O)CC[C@H](NC(=O)CC[C@H](NC(=O)CCCCCCCCCCCCCCCCCCC(=O)O)C(=O)O)C(=O)O)C(=O)N[C@@H](CC(N)=O)C(=O)N[C@@H]([C@@H](C)O)C(=O)N[C@@H](C)C(=O)N[C@@H]([C@@H](C)O)C(=O)N1)[C@@H](C)O)C(=O)N1CCC[C@H]1C(=O)N[C@@H](CO)C(=O)N[C@@H](CO)C(=O)N[C@H](C(=O)N[C@@H](CC(N)=O)C(=O)N[C@H](C(=O)NCC(=O)N1CCC[C@H]1C(=O)N[C@@H](CCC(=O)O)C(=O)N[C@H](C(=O)N[C@@H](Cc1ccc(O)cc1)C(N)=O)[C@@H](C)O)C(C)C)[C@@H](C)O, not restated for each compound; also called compound 120) |  | 868 | 45.3 | 140 | 0.161 |
| K([γGlu-C20 diacid])CNTATCATQRLAEFLRHSSPNFGAIPSSTNVGPRTY-NH2 (disulfide 2-7; N-terminus assumed; SMILES CC[C@H](C)[C@H](NC(=O)[C@H](C)NC(=O)CNC(=O)[C@H](Cc1ccccc1)NC(=O)[C@H](CC(N)=O)NC(=O)[C@@H]1CCCN1C(=O)[C@H](CO)NC(=O)[C@H](CO)NC(=O)[C@H](Cc1c[nH]cn1)NC(=O)[C@H](CCCNC(=N)N)NC(=O)[C@H](CC(C)C)NC(=O)[C@H](Cc1ccccc1)NC(=O)[C@H](CCC(=O)O)NC(=O)[C@H](C)NC(=O)[C@H](CC(C)C)NC(=O)[C@H](CCCNC(=N)N)NC(=O)[C@H](CCC(N)=O)NC(=O)[C@@H](NC(=O)[C@H](C)NC(=O)[C@@H]1CSSC[C@H](NC(=O)[C@@H](N)CCCCNC(=O)CC[C@H](NC(=O)CCCCCCCCCCCCCCCCCCC(=O)O)C(=O)O)C(=O)N[C@@H](CC(N)=O)C(=O)N[C@@H]([C@@H](C)O)C(=O)N[C@@H](C)C(=O)N[C@@H]([C@@H](C)O)C(=O)N1)[C@@H](C)O)C(=O)N1CCC[C@H]1C(=O)N[C@@H](CO)C(=O)N[C@@H](CO)C(=O)N[C@H](C(=O)N[C@@H](CC(N)=O)C(=O)N[C@H](C(=O)NCC(=O)N1CCC[C@H]1C(=O)N[C@@H](CCCNC(=N)N)C(=O)N[C@H](C(=O)N[C@@H](Cc1ccc(O)cc1)C(N)=O)[C@@H](C)O)C(C)C)[C@@H](C)O, not restated for each compound) |  | 45.5 | 38.6 | 15.4 | 0.339 |
